The text below walks through data of the nanobody polyreactivity screen of Harvey et al. (2022).

This data set in a line: yeast display, Sf9 membrane polyspecificity reagent, FACS + sequencing; frameworks hold sequencing errors. The method, boiled down: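 Genes from sorted yeast were amplified by colony PCR, read by MiSeq 2 × 250 sequencing and filtered on CDR length. These cells carried a synthetic nanobody library in Saccharomyces cerevisiae BJ5465 and were sorted by FACS into low and high (top ~1%) gates on anti-HA and streptavidin fluorescence. Polyreactivity is labelled according to the gate of origin.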
Turning to “QVQLVESGGGLVQAGGSLRLSCAASGFILNKNVMGWYRQAPGKERELVAAITGSGGRTYYADSVKGRFSISRDNAKNTVYLQMNSLKPEDTAVYYCAARRPLVRYIMGYWGQGTQVTVSS”, the “polyreactivity (PSR sort gate)” value is “high polyreactivity”.

“QVQLVESGGGLVQAGGSLRLSCAASGFILPWYVMGWYRQAPGKERELVAAISGTGGSTYYADSVKGRFTISRDNAKNTVYLQMNSLKPEDTAVYYCAAGAFYAGYYWEFYYWGQGTQVTVSS”: the “polyreactivity (PSR sort gate)” value is “high polyreactivity”.

As to “QVQLVESGGGLVQAGGSLRLSCAASGFILTDNAKGWNRQAPGKERELVAAINSGGSTYYADSVKGRFTISRDNAKNTVYLQMNSLKPEDTEVYYCAADYSTWLRAYDYWGQGTQVTVSS”, the “polyreactivity (PSR sort gate)” value was “low polyreactivity”.

Take “QVQLVESGGGLVQAGGSLRLSCAASGFILTLYAMGWYRQAPGKERELVASISRRGGSTYYADSVKGRFTISRDNAKNTVYLQMNSLKPEDTAVYYCNAQGYRRGYDYWGQGTQVTVSS”: the “polyreactivity (PSR sort gate)” value is on record as “high polyreactivity”.

“QVQLVESGGGLVQAGGSLRLSCAASGFILYGNTMGWYRHAPGKDRELVAAISWSGGNTRYADSVKGRFTISRDNAKNTVYLQMNSLKQDDTAVYYCAAYSKYVLSIRRDYWGQGTQVTVSS”: the “polyreactivity (PSR sort gate)” value is reported as “low polyreactivity”.

As for “QVQLVESGGGLVQAGGSLRLSCAASGFILYSYAMGWYRQAPGKERELVADITGTGGRTYYADSVKGRFTISRDNAKNTVYLQMNSLKPEDTAVYYCNKGPFFVFRTTRYYEYDYWGQGTQVTVSS”, the “polyreactivity (PSR sort gate)” value was “low polyreactivity”.

As for “QVQLVESGGGLVQAGGSLRLSCAASGFIMQYNAMGRYIQAPRKERELVAAITRSGVSTHYADSVKGRYTISRDNAKNTVYLQMISLKPEDTAVYYCARTGQSLYSRYYYWGQGTQVTVSS”, the “polyreactivity (PSR sort gate)” value was “low polyreactivity”.

In the case of “QVQLVESGGGLVQAGGSLRLSCAASGFIRTAYAMGWYRQAPGKERELVAAIDWIGGSTYYADSVKGRFTISRDNAKNTVYLQMNSLKPEDTAVYYCAAVRYYWGQGTQVTVSS”, the “polyreactivity (PSR sort gate)” value is reported as “low polyreactivity”.

Take “QVQLVESGGGLVQAGGSLRLSCAASGFISAYYAMGWYRQAPGKEMELVAAISWNGGRTFYADSVKGRFTISRDNAKNTVYLQMNSLKPEDTAVYYCAARYNGYANPYYYWGQGTQVTVSS”: the “polyreactivity (PSR sort gate)” value was “high polyreactivity”.

On to “QVQLVESGGGLVQAGGSLRLSCAASGFISDYYAMGWDRQAPGKERELVADISSGGSTYYADSVKGRCTISRDNAKNTVYLQMNSLKPEDTAVYYCNAGDYFVRFVYYWDDERYDYWGQGTQVTVSS”, for which the “polyreactivity (PSR sort gate)” value is “low polyreactivity”.

With “QVQLVESGGGLVQAGGSLRLSCAASGFISGFYGMGWYIQAPGKEREFVAAIDFIDGDTYYADSVKGRFTISRDKAKNTVYLQMNSLKPEDTAVYYCAADGSFCQFDYWGQGTQVTVSS”, the “polyreactivity (PSR sort gate)” value is listed as “low polyreactivity”.

Take “QVQLVESGGGLVQAGGSLRLSCAASGFISGFYGMGWYRQAPGKEREFVAAIDFIDGDTYYADSVKGRFTISRDNAKNTVYLQMNSLKPEDTAVYYCAADGSFWQFDYWGQGTQVTVSS”: the “polyreactivity (PSR sort gate)” value is given as “low polyreactivity”.

On to “QVQLVESGGGLVQAGGSLRLSCAASGFISNDNAMGWYRQAPGKERELVATIDISDASTYYADSVKGRFTISRDNAKNTVYLQMNSLKPEDTAVYYCAAESDEWFTWYWYGYWGQGTQVTVSS”, for which the “polyreactivity (PSR sort gate)” value is on record as “low polyreactivity”.

As to “QVQLVESGGGLVQAGGSLRLSCAASGFISPGYAMGWYRQAPGKERELVAAITRDGGTYYADSVKGRFTISRDNAKNTVYLQMNSLKPEDTAVYYCAAEGSFRKFDYWGQGTQVTVSS”, the “polyreactivity (PSR sort gate)” value is “low polyreactivity”.

For “QVQLVESGGGLVQAGGSLRLSCAASGFISPPYAMGWYRQAPGKERELVAAIRSSGGSTYYADSVKGRFTISRDNAKNTVYLQMNSLKPEDTAVYYCNADWIYISSYGWYSYDYWGQGTQVTLSS”, the “polyreactivity (PSR sort gate)” value is “high polyreactivity”.

As to “QVQLVESGGGLVQAGGSLRLSCAASGFISPPYAMGWYRQAPGKERELVAAIRSSGGSTYYADSVKGRFTISRDNPKNTVYLQMNSLKPEDTAVYYCNADWIYISSYGWYSYDYWGQGTQVTVSS”, the “polyreactivity (PSR sort gate)” value is “high polyreactivity”.

On to “QVQLVESGGGLVQAGGSLRLSCAASGFISPYAMRWYRQAPGKERELVAVITSSGGSTYYADSVKGRFTISRDNAKNTVYLQMNSLKPEDTAVYYCAARFYFRWYYYGSYANYWGQGTQVTVSS”, for which the “polyreactivity (PSR sort gate)” value was “high polyreactivity”.

Regarding “QVQLVESGGGLVQAGGSLRLSCAASGFISRNAMGWYRQAPGKERELVAAITRGGSTNYADSVKGRFTISRDNAKNTVYLQMNRLKPEDTAVYYCNKQRQGNSRSYYQTYYGMYYWGQGTQVTVSS”, the “polyreactivity (PSR sort gate)” value is “high polyreactivity”.

For the sequence “QVQLVESGGGLVQAGGSLRLSCAASGFISSRYAMGWYRQAPGKERELVASINWSGGSTYYADSVKGRFTISRDNAKNTVYLQMNSLKPEDTAVYYCNRVLDPTNKYYYWGQGTQVTVSS”, the “polyreactivity (PSR sort gate)” value is “high polyreactivity”.

With “QVQLVESGGGLVQAGGSLRLSCAASGFISTPYAMGWYRQAPGKERELVAAIDISGGRTYYADSVKGRFTISRDNAKNTVYLQMNSLKPEDTAVYYCAAQLVSSYYAWYRTYYYWGQGTQVTVSS”, the “polyreactivity (PSR sort gate)” value was “high polyreactivity”.

For the sequence “QVQLVESGGGLVQAGGSLRLSCAASGFISYYYAMGWYRHAPGKEREFVAAITSSGGSTRYADSVKGCFTISRDNAKNTVYLQMNSLKPEDTAVYYCAAGNPYFWPYDYWGQGTQVTVSS”, the “polyreactivity (PSR sort gate)” value is given as “low polyreactivity”.

Regarding “QVQLVESGGGLVQAGGSLRLSCAASGFITPWYAMGWYRQAAGKEREWVAAIDWSGGSTYYADSVKGRFTISRDNAKNSVYLQMNSVKPEDTAVYYCAARYYTASVRAGRVRMYYWGQGTQVTVSS”, the “polyreactivity (PSR sort gate)” value is reported as “high polyreactivity”.

As for “QVQLVESGGGLVQAGGSLRLSCAASGFIVGRYAMGWYRQAPGNERELVAAITRSGGSTYYADSVKGRFTISRDNAKNTVYLQMISLKPEQTAVYFGAAYPGRAQVAYDYWGQGTQVTVSS”, the “polyreactivity (PSR sort gate)” value was “high polyreactivity”.

In the case of “QVQLVESGGGLVQAGGSLRLSCAASGFIVRSYAMGWYRQAPGKERELVAVISRRGVNTHYADSVKGRFTISRDNAKNTVYFQMNSLKPEDTAVYYCAKGLTALGDYWGQGTQVTVSS”, the “polyreactivity (PSR sort gate)” value is on record as “high polyreactivity”.

On to “QVQLVESGGGLVQAGGSLRLSCAASGFIWSYVMGWYRQAPGKESQLVAAISRSCGRTYYADSVKGRFTISRDNAKNTVYLQMNSLKPEDTAVYYCAKDGGWSRLHYNYWGQGNQVTVSS”, for which the “polyreactivity (PSR sort gate)” value is listed as “high polyreactivity”.

Regarding “QVQLVESGGGLVQAGGSLRLSCAASGFIYDKYVMGWSRQAPGKERQLVAAISSGGSTYYADSVKGRFTISRDNAKNTVYLQMNSLKPEDTAVYYCNAGGFWPWVYGYDSWGQGTQVTVSS”, the “polyreactivity (PSR sort gate)” value is recorded as “high polyreactivity”.

As to “QVQLVESGGGLVQAGGSLRLSCAASGFIYERNAMGWYRQAPGKERELVAAISGGGSTNYADSVKGRFTISRDNAKNTVYLQMNSLNPEDTAVYYCAADSWWYPFDYWGQGTQVTVSS”, the “polyreactivity (PSR sort gate)” value is “high polyreactivity”.

As for “QVQLVESGGGLVQAGGSLRLSCAASGFIYGPNAMGWYRQAPGKERELVAAISYSGGRTYYADSVKGRFTISRDNAKNTVYLQLISLKPEDSAVYYCAAERKIKYDYWGQGTQVTVSS”, the “polyreactivity (PSR sort gate)” value was “high polyreactivity”.

Regarding “QVQLVESGGGLVQAGGSLRLSCAASGFIYNAMGWYRQAPGKERELVAAISYSGGSTYYADSVKGRFTISRDNAKNTVYLQMNILKPEDTAVYYCAAGYYPFNYWGQGTQVTVSS”, the “polyreactivity (PSR sort gate)” value is reported as “high polyreactivity”.

For the sequence “QVQLVESGGGLVQAGGSLRLSCAASGFIYRKNAMGWYRQAPGKERELVATITKSGDTTYYADSVKGRFTISRDNAKNTVYLQMNSLKPEDTAVYYCAAPLYYIGSWDYYVRYIYDYWGQGTQVTVSS”, the “polyreactivity (PSR sort gate)” value is recorded as “low polyreactivity”.

As for “QVQLVESGGGLVQAGGSLRLSCAASGFIYSSNAMGWYRQAPGKERELVAAISSSGGRTYYAVSVKGRFTISRDNAKNTVYLQMNRLKPEDTAVYYCNAYPRSRGSANDWGQGTQVPVSS”, the “polyreactivity (PSR sort gate)” value is reported as “high polyreactivity”.

“QVQLVESGGGLVQAGGSLRLSCAASGFIYTYAMGSYRQAPGKERELVAAIRWIGTRTYYADSVKGRFTISRDNAKNTVYLQMNSLKPEDTADYYCAARYYTYDGYSKYDYWGQGTQVNVSS”: the “polyreactivity (PSR sort gate)” value was “high polyreactivity”.

Take “QVQLVESGGGLVQAGGSLRLSCAASGFLFGYSAMGWYRQAPGKERELVAAISYACRSTYYADSVKGRFTISRDNAKNTVYLQMNSLKPEDTAVYYCAKYGQSNYDWGQGTQVTVSS”: the “polyreactivity (PSR sort gate)” value was “high polyreactivity”.

Consider “QVQLVESGGGLVQAGGSLRLSCAASGFLFRYYARGWYRQAPGKERELVADISQNGDSTYYADSVKGRFTISRDTAKITVYLQMNCLNPDDTAVYYCNADNDPWPYFDGIFSVDMDYWGQGTQVTVSS”, for which the “polyreactivity (PSR sort gate)” value is on record as “low polyreactivity”.

Turning to “QVQLVESGGGLVQAGGSLRLSCAASGFNFIYYAMGWYRQAPGKERELVAAISRRGGSTYYADSVKGRFTISRDNAKNTVYLQMNSLKPEDTAVYYCAADYTSAILRSDYWGQGTQVTVSS”, the “polyreactivity (PSR sort gate)” value is reported as “high polyreactivity”.

Regarding “QVQLVESGGGLVQAGGSLRLSCAASGFNFNKNAMGWYIQAPGKERELVASITASGTTTYADSVKGRFTISRDNAKNTVYLQMNSLKPEDTAVYYCAVRTRIWGFYYWGQGTQVTVSS”, the “polyreactivity (PSR sort gate)” value is recorded as “high polyreactivity”.

For the sequence “QVQLVESGGGLVQAGGSLRLSCAASGFNFRANGMGWYRQAPGKERELVATITSGGTTNYADSVKGRFTISRDNAKNTVYLQMNSLKPEDTAVYYCDKRFGPAYFRLYDYWGQGTQVTVSS”, the “polyreactivity (PSR sort gate)” value was “low polyreactivity”.

Consider “QVQLVESGGGLVQAGGSLRLSCAASGFNFRSYAIGCYRQAPGKERELVAAITSTGGRTYYADSVKGRFTISRDNAKNTVYLQMNSLKPEETAVYYCAAGRKHYAPVHFGYWGQGTQVTVSS”, for which the “polyreactivity (PSR sort gate)” value was “high polyreactivity”.

On to “QVQLVESGGGLVQAGGSLRLSCAASGFNIVRYAMGWYRHAPRKERELVATITSGTSTNYADSVKGRITISRDNAKNTVYFQMNSLKPDDTAVYYCAADHYYTGTTYNFWGQGTQVNVSS”, for which the “polyreactivity (PSR sort gate)” value is listed as “low polyreactivity”.

On to “QVQLVESGGGLVQAGGSLRLSCAASGFNLYPNAMGWYRQAPGKERELGAAITESDGITYYADSVKGRFTISRDNAKYTVYLQMNSLKPEDTAVYYCNTGFSYTYDYWGQGTQVTVSS”, for which the “polyreactivity (PSR sort gate)” value is given as “low polyreactivity”.

For “QVQLVESGGGLVQAGGSLRLSCAASGFSFPPYAMGWYRQAPGKERELVAAITTSGGSTYYADSVKGRFTISRDNAKNTVYLQMNSMKPEDTAVYYCAADWRYLGYTAMDYWGQGTQVTVSS”, the “polyreactivity (PSR sort gate)” value was “low polyreactivity”.
